For three compounds, solubility in water and IC50 results are on record in patent US20240285784A1, “PEPTIDIC CONJUGATES OF SN38 USEFUL IN THE TREATMENT OF CANCER” (FUNDACIÓ INSTITUT DE RECERCA BIOMÈDICA (IRB BARCELONA), priority 2020, published 2024).

Data set [1] can be described thus: Evaluation of solubility in water. The format is physicochemical. The following applies: at 1 mg/mL. As for the experimental part:
25 mg of SN38-linker A-MiniAp4 were dissolved in H2O, showing a completely transparent solution. This means that SN38-linker A-MiniAp4 has a solubility in water higher than 5 mg/mL, more than 400-fold the solubility in water described for SN38 (Mol. Pharmaceutics, 2016, 13, 379-390).

Data set [2] concerns diffuse intrinsic pontine glioma HSJD-DIPG-007. Put plainly: cells. Conditions: read-out: IC50 values of compounds; HSJD-DIPG-007; MTS, 72 h incubation; Example 11, Table 4. The source says: Cancer cell lines were obtained from the repository maintained at Hospital Sant Joan de Deu (Barcelona, Spain). Cancer cell lines used in these experiment included cancer types of adult glioma (U373 and U87 cell lines), pediatric gliomas including diffuse intrinsic pontine glioma (HSJD-DIPG-007, HSJD-DIPG-011), and pediatric high-grade glioma (HSJD-GBM-001), retinoblastoma (HSJD-RBT-5, HSJD-RBT-7 and HSJD-RBT-14), Ewing sarcoma (A673), rhabdomyosarcoma (Rd and RH4) and neuroblastoma (LAN-1 and SK-N-JD cell lines and HSJD-NB-004, HSJD-NB-005 and HSJD-NB-016 patient-derived cell models). […] To add the drugs to the cells in culture, SN38-linker A-MiniAp4 (Ia) and irinotecan were prepared in culture medium from stock solutions at concentration 1 mg/mL in water. SN38 was prepared in culture medium from a stock solution at concentration 1 mg/mL in DMSO. […] Activity curves were built for adult glioma cell lines U87 (FIG. 1) and U373 (FIG. 2), pediatric gliomas including DIPG models HSJD-DIPG-007 (FIG. 3) and HSJD-DIPG-011 (FIG. 4), and pediatric high-grade glioma model HSJD-GBM-001 (FIG. 5), retinoblastoma models HSJD-RBT-5 (FIG. 6), HSJD-RBT-7 (FIG. 7) and HSJD-RBT-14 (FIG. 8), Ewing sarcoma cell line A673 (FIG. 9), rhabdomyosarcoma cell lines Rd (FIG. 10) and RH4 (FIG. 11), neuroblastoma cell lines LAN-1 (FIG. 12) and SK-N-JD (FIG. 13) and neuroblastoma patient-derived cell models HSJD-NB-004 (FIG. 14), HSJD-NB-005 (FIG. 15) and HSJD-NB-016 (FIG. 16). The established IC50 values are in Table 3.
Cancer cell lines used in these experiments were pediatric gliomas including diffuse intrinsic pontine glioma HSJD-DIPG-007, and pediatric high-grade glioma HSJD-GBM-001. […] To add the drugs to the cells in culture, SN38-Linker A-MiniAp4 (Ia) and SN38-Linker B-THRre were prepared in culture medium from stock solutions at concentration 1 mg/mL in water. SN38 was prepared in culture medium from a stock solution at concentration 1 mg/mL in DMSO. […] Activity curves were built for cells HSJD-DIPG-007 (FIG. 20) and HSJD-GBM-001 (FIG. 21).
Cancer cell lines used in these experiments were pediatric gliomas including diffuse intrinsic pontine glioma HSJD-DIPG-007, and pediatric high-grade glioma HSJD-GBM-001. […] All compounds were prepared in culture medium from stock solutions at concentration 1 mg/mL in water. […] Activity curves were built for cells HSJD-DIPG-007 (FIG. 22) and HSJD-GBM-001 (FIG. 23).
Cancer cell line used in these experiment was HSJD-DIPG-007.

Data set [3] deals with pediatric high-grade glioma HSJD-GBM-001. The experiment in a line: cells. The following applies: MTS, 72 h incubation, Example 11, Table 4, read-out: IC50 values of compounds. The data set is classed as cell-based. The source says: Cancer cell lines were obtained from the repository maintained at Hospital Sant Joan de Deu (Barcelona, Spain). Cancer cell lines used in these experiment included cancer types of adult glioma (U373 and U87 cell lines), pediatric gliomas including diffuse intrinsic pontine glioma (HSJD-DIPG-007, HSJD-DIPG-011), and pediatric high-grade glioma (HSJD-GBM-001), retinoblastoma (HSJD-RBT-5, HSJD-RBT-7 and HSJD-RBT-14), Ewing sarcoma (A673), rhabdomyosarcoma (Rd and RH4) and neuroblastoma (LAN-1 and SK-N-JD cell lines and HSJD-NB-004, HSJD-NB-005 and HSJD-NB-016 patient-derived cell models). Briefly, between 3000 and 30,000 cancer cells were cultured in 96 well plates and 24 h later the cells were exposed to compound SN38-linker A-MiniAp4 (Ia) (concentration range 1-0.00000001 μM), SN38 (concentration range 1-0.00000001 μM), or irinotecan (concentration range 100-0,000001 μM). To add the drugs to the cells in culture, SN38-linker A-MiniAp4 (Ia) and irinotecan were prepared in culture medium from stock solutions at concentration 1 mg/mL in water. SN38 was prepared in culture medium from a stock solution at concentration 1 mg/mL in DMSO. The tetrazolium compound [3-(4,5-dimethylthiazol-2-yl)-5-(3-carboxymethoxyphenyl)-2-(4-sulfophenyl)-2H-tetrazolium] (MTS assay; Promega, Fitchburg, WI) was used to determine cell viability after 72 h incubation with the drugs. The concentrations of drug required to cause a reduction of 50% in cell proliferation (IC50 and 95% confidence intervals) were calculated with Graphpad Prism 8 software (La Jolla, CA). Activity curves were built for adult glioma cell lines U87 (FIG. 1) and U373 (FIG. 2), pediatric gliomas including DIPG models HSJD-DIPG-007 (FIG. 3) and HSJD-DIPG-011 (FIG. 4), and pediatric high-grade glioma model HSJD-GBM-001 (FIG. 5), retinoblastoma models HSJD-RBT-5 (FIG. 6), HSJD-RBT-7 (FIG. 7) and HSJD-RBT-14 (FIG. 8), Ewing sarcoma cell line A673 (FIG. 9), rhabdomyosarcoma cell lines Rd (FIG. 10) and RH4 (FIG. 11), neuroblastoma cell lines LAN-1 (FIG. 12) and SK-N-JD (FIG. 13) and neuroblastoma patient-derived cell models HSJD-NB-004 (FIG. 14), HSJD-NB-005 (FIG. 15) and HSJD-NB-016 (FIG. 16). The established IC50 values are in Table 3.
The present inventors compared the activity of the new compound SN38 conjugated with MiniAp4 (SN38-linkerA-MiniAp4, example 7 also named G2B-001) and with SN38-linker B-THRre (comparative example 2). Original compound SN38 was used as reference. Cancer cell lines used in these experiments were pediatric gliomas including diffuse intrinsic pontine glioma HSJD-DIPG-007, and pediatric high-grade glioma HSJD-GBM-001. Briefly, 3000 cancer cells were cultured in 96 well plates and 24 h later the cells were exposed to compound compound (Ia) (concentration range 1-0.00000001 μM), SN38-Linker B-THRre (concentration range 1-0.00000001 μM), and SN38 (concentration range 1-0.00000001 μM). To add the drugs to the cells in culture, SN38-Linker A-MiniAp4 (Ia) and SN38-Linker B-THRre were prepared in culture medium from stock solutions at concentration 1 mg/mL in water. SN38 was prepared in culture medium from a stock solution at concentration 1 mg/mL in DMSO. The MTS assay was used to determine cell viability after 72 h incubation with the drugs. The concentrations of drug required to cause a reduction of 50% in cell proliferation (IC50 and 95% confidence intervals) were calculated with Graphpad Prism 8 software (La Jolla, CA). Activity curves were built for cells HSJD-DIPG-007 (FIG. 20) and HSJD-GBM-001 (FIG. 21). The established IC50 values are in Table 4.
Cancer cell lines used in these experiments were pediatric gliomas including diffuse intrinsic pontine glioma HSJD-DIPG-007, and pediatric high-grade glioma HSJD-GBM-001. Briefly, 3000 cancer cells were cultured in 96 well plates and 24 h later the cells were exposed to compounds (Ia), comparative example 1 and comparative example 2 (concentration range 1-0.001 μM for each of them). […]

Where a SMILES comes first, the peptide text is derived from it. Bridges are numbered along the chain shown (N, C = ends). [ ]: non-standard residue; d: D form. The star is where a group is joined. X6 = CCc1c2c(nc3ccc(OC(=O)OCc4ccc(NC(=O)[C@H](CCCNC(N)=O)NC(=O)[C@@H](NC(=O)COCC(=O)*)C(C)C)cc4)cc13)-c1cc3c(c(=O)n1C2)COC(=O)[C@]3(O)CC; X2 = CCc1c2c(nc3ccc(O)cc13)-c1cc3c(c(=O)n1C2)COC(=O)[C@@]3(CC)OC(=O)CCC(=O)*; X7 = CCc1c2c(nc3ccc(OC(=O)*)cc13)-c1cc3c(c(=O)n1C2)COC(=O)[C@]3(O)CC; Nva = CCC[C@H](N)C(=O)O; Dap = NC[C@H](N)C(=O)O

Regarding `CCc1c2c(nc3ccc(OC(=O)OCc4ccc(NC(=O)[C@H](CCCNC(N)=O)NC(=O)[C@@H](NC(=O)COCC(=O)N[C@H]5CNC(=O)C[C@@H](C(N)=O)NC(=O)[C@H](CC(C)C)NC(=O)[C@H](C)NC(=O)[C@H]([C@@H](C)O)NC(=O)[C@H](CCC(=O)O)NC(=O)[C@@H]6CCCN6C(=O)[C@H](C)NC(=O)[C@H](CCCCN)NC5=O)C(C)C)cc4)cc13)-c1cc3c(c(=O)n1C2)COC(=O)[C@]3(O)CC` [G2B-004 (Id)] (X6-[Dap]KAPETALD-NH2; lactam 1-9), in data set [1], the solubility in water entry is “good solubility”. The same measure, in the same setting: the value for `CCC[C@H](NC(=O)CNC(=O)Oc1ccc2nc3c(c(CC)c2c1)Cn1c-3cc2c(c1=O)COC(=O)[C@]2(O)CC)C(=O)N1CCC[C@H]1C(=O)NCC(=O)N[C@H]1CNC(=O)C[C@@H](C(N)=O)NC(=O)[C@H](CC(C)C)NC(=O)[C@H](C)NC(=O)[C@H]([C@@H](C)O)NC(=O)[C@H](CCC(=O)O)NC(=O)[C@@H]2CCCN2C(=O)[C@H](C)NC(=O)[C@H](CCCCN)NC1=O` [G2B-005 (Ie)] (X7-G[Nva]PG[Dap]KAPETALD-NH2; lactam 5-13) was “good solubility”. As usually defined, the IC50 is the concentration that gives 50% inhibition. As for `CCc1c2c(nc3ccc(O)cc13)-c1cc3c(c(=O)n1C2)COC(=O)[C@@]3(CC)OC(=O)CCC(=O)N1CCC[C@@H]1C(=O)N[C@H](Cc1c[nH]c2ccccc12)C(=O)N[C@@H](C(=O)N1CCC[C@@H]1C(=O)N[C@H](CO)C(=O)N[C@H](Cc1c[nH]c2ccccc12)C(=O)N[C@H](CCSC)C(=O)N1CCC[C@@H]1C(=O)N1CCC[C@@H]1C(=O)N[C@H](CCCNC(=N)N)C(=O)N[C@H](Cc1c[nH]cn1)C(=O)N[C@@H](C(N)=O)[C@H](C)O)C(C)C` [Comparative Example 2, reference compound] (X2-[dP][dW][dV][dP][dS][dW][dM][dP][dP][dR][dH][dT]-NH2; N-terminus and C-terminus assumed), the IC50 was determined as 104 nM in data set [2] and 60.6 nM in data set [3].
